# In PMC13185593:
# Tested on: HuR
# Assay: SPR
# Conditions: SPR: 25 mM Tris pH 7.5, 100 mM KCl, 7 mM b-mercaptoethanol, 10% glycerol, 25 C, UV crosslinking: 5 mM HEPES pH 7.6, 25 mM KCl, 2 mM MgCl2, 3.8% glycerol
row,Substance,Kd
1,"SARS-CoV-2 5'-UTR G210U+C241U, biotin (SPR)",72.9 nM
2,"SARS-CoV-2 5'-UTR C241U, biotin (SPR)",339 nM
